Experimental data reported in paper PMC5552956, “The PAS domains of the major sporulation kinase in Bacillus subtilis play a role in tetramer formation that is essential for the autokinase activity” (MicrobiologyOpen, 2017).
Several values for one entry are separate records, joined by “and”; a condition that tells them apart may be missing. Equal entries are not always repeated.

How the values were obtained:
[1] = target: KinAN-GFP (Bacillus subtilis); assay: cross-linking; cell extracts of B. subtilis lacking native kinA (LB, 10 μmol/L IPTG) incubated with or without bis-maleimidohexane (BMH, sulfhydryl-specific); SDS-PAGE (10%), immunoblot with anti-GFP antibodies; sizes from a regression line of mass standards
[2] = target: KinAN-GFP-his6 (Bacillus subtilis); assay: native gel or EMSA; blue native PAGE (4-16% gradient gel) of Ni-NTA eluates, immunoblot with anti-GFP antibodies; sizes from a regression line of NativeMark standards
[3] = target: PAS-BC-GFP-his6 (Bacillus subtilis); assay: as above
[4] = target: KinA^ΔPAS-A-GFP (Bacillus subtilis); assay: cross-linking; cell extracts of B. subtilis lacking native kinA (LB, 10 μmol/L IPTG) incubated with or without bis-maleimidohexane (BMH, sulfhydryl-specific); SDS-PAGE (10%), immunoblot with anti-GFP antibodies; sizes from a regression line of mass standards
[5] = target: the molecule itself; assay: as above

KinAN-GFP (domain or fragment)
stoichiometry N [1]: 4

KinAN-GFP-his6 (domain or fragment)
stoichiometry N [2]: 4 and 2

PAS-BC-GFP-his6 (domain or fragment)
stoichiometry N [3]: 4 and 2

KinA^ΔPAS-A-GFP (domain or fragment)
stoichiometry N [4]: 4

B1: full-length KinA-GFP (natural protein, Bacillus subtilis, UniProt P16497 1-606, looked up)
chain: MEQDTQHVKPLQTKTDIHAVLASNGRIIYISANSKLHLGYLQGEMIGSFLKTFLHEEDQFLVESYFYNEHHLMPCTFRFIKKDHTIVWVEAAVEIVTTRAERTEREIILKMKVLEEETGHQSLNCEKHEIEPASPESTTYITDDYERLVENLPSPLCISVKGKIVYVNSAMLSMLGAKSKDAIIGKSSYEFIEEEYHDIVKNRIIRMQKGMEVGMIEQTWKRLDGTPVHLEVKASPTVYKNQQAELLLLIDISSRKKFQTILQKSRERYQLLIQNSIDTIAVIHNGKWVFMNESGISLFEAATYEDLIGKNIYDQLHPCDHEDVKERIQNIAEQKTESEIVKQSWFTFQNRVIYTEMVCIPTTFFGEAAVQVILRDISERKQTEELMLKSEKLSIAGQLAAGIAHEIRNPLTAIKGFLQLMKPTMEGNEHYFDIVFSELSRIELILSELLMLAKPQQNAVKEYLNLKKLIGEVSALLETQANLNGIFIRTSYEKDSIYINGDQNQLKQVFINLIKNAVESMPDGGTVDIIITEDEHSVHVTVKDEGEGIPEKVLNRIGEPFLTTKEKGTGLGLMVTFNIIENHQGVIHVDSHPEKGTAFKISFPKK
notes: Sporulation kinase KinA, Bacillus subtilis (strains derived from PY79), full length; Tetramer by BMH cross-linking; also called MF3352; source: B. subtilis lacking the native kinA gene, IPTG-inducible promoter (10 μmol/L IPTG, LB), in cell extract
stoichiometry N [5]: 4

B2: KinA^ΔPAS-AB-GFP (domain or fragment, Bacillus subtilis, UniProt P16497 259-606, looked up)
chain: QTILQKSRERYQLLIQNSIDTIAVIHNGKWVFMNESGISLFEAATYEDLIGKNIYDQLHPCDHEDVKERIQNIAEQKTESEIVKQSWFTFQNRVIYTEMVCIPTTFFGEAAVQVILRDISERKQTEELMLKSEKLSIAGQLAAGIAHEIRNPLTAIKGFLQLMKPTMEGNEHYFDIVFSELSRIELILSELLMLAKPQQNAVKEYLNLKKLIGEVSALLETQANLNGIFIRTSYEKDSIYINGDQNQLKQVFINLIKNAVESMPDGGTVDIIITEDEHSVHVTVKDEGEGIPEKVLNRIGEPFLTTKEKGTGLGLMVTFNIIENHQGVIHVDSHPEKGTAFKISFPKK
notes: KinA of Bacillus subtilis without PAS-A and PAS-B; 'our autokinase-deficient PAS-AB mutant (aa 259-606)'; also called MF3356; source: B. subtilis lacking the native kinA gene, IPTG-inducible promoter (10 μmol/L IPTG, LB), in cell extract
stoichiometry N [5]: 2
